{"source": "the supplement of paper PMC9170038", "test_system": "MS2 coat protein", "test": "apparent KD of MS2 coat protein; higher = weaker reporter binding", "details": "Eterna round: R107", "how_it_was_run": "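Designed RNA switches were made by on-chip transcription from Illumina sequencing clusters and then titrated with SNAP-549-labelled MS2 coat protein. Twofold steps ran from 0.7 or 1.5 nM to 3 µM, each lasting 0.8–1.5 h early and 10–20 min late, in 100 mM Tris-HCl pH 7.5, 80 mM KCl, 4 mM MgCl2, without or with constant ligand. Apparent KD is the per-design median of normalised cluster binding-curve fits.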", "key": {"[1]": {"details": "input ligand: theophylline 20 uM"}, "[2]": {"details": "input ligand: theophylline 2 mM"}, "[3]": {"details": "input ligand: tryptophan 2.4 mM"}}, "data": [{"sequence": "GGAUAGGACAGAAGGAGCGACGUGAGGCGAAAGCCAAUCCUUCAACAUGAGGAUCACCCAUGUCAGGUAGGUCGCUGUCCUAUCG [ArgBX 5]", "values": [{"measurement": "apparent KD of MS2 coat protein", "setting": "input ligand: arginine 13.2 mM", "result": 19.5, "unit": "nM"}, {"measurement": "apparent KD of MS2 coat protein", "setting": "input ligand: none", "result": 20.9, "unit": "nM"}, {"measurement": "apparent KD of MS2 coat protein", "setting": "[1]", "result": 26.4, "unit": "nM"}, {"measurement": "apparent KD of MS2 coat protein", "setting": "[2]", "result": 22.3, "unit": "nM"}, {"measurement": "apparent KD of MS2 coat protein", "setting": "[3]", "result": 22.5, "unit": "nM"}]}, {"sequence": "AUUUAUUGUCGUGAUACCAGACAUACAUGAGGAUCACCCAUGUUAAGUAACUUUUUUCAGGUCCCUUGGCAGCACUUUUUAAUUA [JR_Nu_SSTheophyB_Sub019]", "values": [{"measurement": "apparent KD of MS2 coat protein", "setting": "input ligand: arginine 13.2 mM", "result": 21.1, "unit": "nM"}, {"measurement": "apparent KD of MS2 coat protein", "setting": "[1]", "result": 23.8, "unit": "nM"}, {"measurement": "apparent KD of MS2 coat protein", "setting": "[3]", "result": 18.1, "unit": "nM"}]}, {"sequence": "UCGUGCAGAGCGGCCGCCACUGUAUUGCGUGCGGAUGACGGAACAUGAGGAUCACCCAUGUUGUUUAGGACCGGGCUUGCCACCA ['xmullin]", "values": [{"measurement": "apparent KD of MS2 coat protein", "setting": "input ligand: arginine 13.2 mM", "result": 12.4, "unit": "nM"}, {"measurement": "apparent KD of MS2 coat protein", "setting": "[1]", "result": 15.9, "unit": "nM"}, {"measurement": "apparent KD of MS2 coat protein", "setting": "[2]", "result": 14.3, "unit": "nM"}]}, {"sequence": "UACCGGUGACUCGAUACCAGUCCUCUAAAAUACAUGAGGAUCACCCAUGUAACCUUCCCAGACCCUUGGCAGCGACACAUGGAUA [theeternabot_sameState_MS2_Theo_B_49]", "values": [{"measurement": "apparent KD of MS2 coat protein", "setting": "input ligand: arginine 13.2 mM", "result": 97.7, "unit": "nM"}, {"measurement": "apparent KD of MS2 coat protein", "setting": "[1]", "result": 176, "unit": "nM"}, {"measurement": "apparent KD of MS2 coat protein", "setting": "[3]", "result": 147, "unit": "nM"}]}, {"sequence": "AUCGUACCUGAGGAUACCAGCAUGUGAUCAUAACAUGAGGAUCACCCAUGUAAUCAGUGAUGCCCUUGGCAGCUUGGUCGAUACA [Same State - Theophylline B (Freestyle 9)]", "values": [{"measurement": "apparent KD of MS2 coat protein", "setting": "input ligand: arginine 13.2 mM", "result": 42.5, "unit": "nM"}, {"measurement": "apparent KD of MS2 coat protein", "setting": "[1]", "result": 75, "unit": "nM"}, {"measurement": "apparent KD of MS2 coat protein", "setting": "[3]", "result": 46.2, "unit": "nM"}]}, {"sequence": "CAUUGAGCAGCUGAUACCAGUGCCUGAACUUACAUGAGGAUCACCCAUGUAUGCCCAAAACACCCUUGGCAGCAGAGGAAGAUCG [theeternabot_sameState_MS2_Theo_B_38]", "values": [{"measurement": "apparent KD of MS2 coat protein", "setting": "input ligand: arginine 13.2 mM", "result": 15.2, "unit": "nM"}, {"measurement": "apparent KD of MS2 coat protein", "setting": "[1]", "result": 18.9, "unit": "nM"}, {"measurement": "apparent KD of MS2 coat protein", "setting": "[3]", "result": 14.5, "unit": "nM"}]}, {"sequence": "ACACAUGAGGAUCACCCAUGUUCAAUAGAUACCAGUGAUACGGUGCACCCUUGGCAGCUGUUGCUGAGUGAUGGUUCCCUCGGUA [#23 SameState-TheophyllineA]", "values": [{"measurement": "apparent KD of MS2 coat protein", "setting": "input ligand: arginine 13.2 mM", "result": 28.1, "unit": "nM"}, {"measurement": "apparent KD of MS2 coat protein", "setting": "[1]", "result": 53.9, "unit": "nM"}, {"measurement": "apparent KD of MS2 coat protein", "setting": "[3]", "result": 41, "unit": "nM"}]}, {"sequence": "GGGCGCGUGGACCGGCGUGCUCCGCUCCGUCGAGGACCGGUACGGCCGCCACUCGACAUGAGGAUCACCCAUGUGUGAGCUCGCG [#1 Exclusion - Tryptophan A Attempt #16 (HarryS)]", "values": [{"measurement": "apparent KD of MS2 coat protein", "setting": "input ligand: arginine 13.2 mM", "result": 22.5, "unit": "nM"}, {"measurement": "apparent KD of MS2 coat protein", "setting": "[1]", "result": 63.6, "unit": "nM"}, {"measurement": "apparent KD of MS2 coat protein", "setting": "[2]", "result": 80, "unit": "nM"}]}, {"sequence": "GGAUAGGACAGAAGGAGCGACAUCGCCGAAAGGCUGGUAAGAUCACAUGAGGAUCACCCAUGUCAGGUAGGUCGCUGUCCUAUCG [ArgXB 11 #Zipper #MS2Left #StaticStem #Blueprint]", "values": [{"measurement": "apparent KD of MS2 coat protein", "setting": "input ligand: arginine 13.2 mM", "result": 92.2, "unit": "nM"}, {"measurement": "apparent KD of MS2 coat protein", "setting": "input ligand: none", "result": 283, "unit": "nM"}, {"measurement": "apparent KD of MS2 coat protein", "setting": "[1]", "result": 360, "unit": "nM"}, {"measurement": "apparent KD of MS2 coat protein", "setting": "[2]", "result": 627, "unit": "nM"}, {"measurement": "apparent KD of MS2 coat protein", "setting": "[3]", "result": 308, "unit": "nM"}]}, {"sequence": "UUUGGCGGCGAUCUGGGUUUCCCAGAUCGGCGAGGACCGGUACGGCCGCCACUCGUGUUUCUUUGACAUGAGGAUCACCCAUGUA [whbob_SS_trypto A_f4]", "values": [{"measurement": "apparent KD of MS2 coat protein", "setting": "input ligand: arginine 13.2 mM", "result": 51.5, "unit": "nM"}, {"measurement": "apparent KD of MS2 coat protein", "setting": "input ligand: none", "result": 62.7, "unit": "nM"}, {"measurement": "apparent KD of MS2 coat protein", "setting": "[1]", "result": 82.7, "unit": "nM"}, {"measurement": "apparent KD of MS2 coat protein", "setting": "[2]", "result": 93.9, "unit": "nM"}, {"measurement": "apparent KD of MS2 coat protein", "setting": "[3]", "result": 42.8, "unit": "nM"}]}, {"sequence": "AGGACAUGAGGAUCACCCAUGUACUCUGAAGGAGCGUCGAGAACGACAGGUAGGUCGCAGGCUAAGGAAGGUGAUGCUCAAGAAG [Exclusion Arginine A GF7]", "values": [{"measurement": "apparent KD of MS2 coat protein", "setting": "input ligand: arginine 13.2 mM", "result": 20.1, "unit": "nM"}, {"measurement": "apparent KD of MS2 coat protein", "setting": "input ligand: none", "result": 20.2, "unit": "nM"}, {"measurement": "apparent KD of MS2 coat protein", "setting": "[1]", "result": 37.3, "unit": "nM"}, {"measurement": "apparent KD of MS2 coat protein", "setting": "[2]", "result": 24.8, "unit": "nM"}, {"measurement": "apparent KD of MS2 coat protein", "setting": "[3]", "result": 15.2, "unit": "nM"}]}, {"sequence": "GACAUGAGGAUCACCCAUGUAUUGGGUGAUACCAGCCUGAAUCAUGGCCCUUGGCAGCACCGCGCUAACUUUAUGUUUGCGAACC [Mavegeceri]", "values": [{"measurement": "apparent KD of MS2 coat protein", "setting": "input ligand: arginine 13.2 mM", "result": 95, "unit": "nM"}, {"measurement": "apparent KD of MS2 coat protein", "setting": "[1]", "result": 210, "unit": "nM"}, {"measurement": "apparent KD of MS2 coat protein", "setting": "[3]", "result": 56.5, "unit": "nM"}]}, {"sequence": "ACGCUGAUUGAUUACAAUCAGCGAAAAGAUACCAGUGGGUAAUCCCACCCUUGGCAGCUUAAACAUGAGCAUCAGCCAUGUGGUA [TheoAS 15 #MS2Right #BothOrNeither #AlternativeMS2]", "values": [{"measurement": "apparent KD of MS2 coat protein", "setting": "input ligand: arginine 13.2 mM", "result": 77.9, "unit": "nM"}, {"measurement": "apparent KD of MS2 coat protein", "setting": "input ligand: none", "result": 119, "unit": "nM"}, {"measurement": "apparent KD of MS2 coat protein", "setting": "[1]", "result": 114, "unit": "nM"}, {"measurement": "apparent KD of MS2 coat protein", "setting": "[2]", "result": 37.2, "unit": "nM"}, {"measurement": "apparent KD of MS2 coat protein", "setting": "[3]", "result": 142, "unit": "nM"}]}]}
